# Test results taken from PMC9811221 (The Journal of Biological Chemistry, 2022).
# B1: VHH21 (VHH)
# VHH: EVQLVESGGGLVQTGGSLRLSCAASGRTFDSYFMGWFRQAPGKEREFVAAISGSGSLTSYEDGVKGRFTISRDNAKNTVSLQMTNLKPEDTAVYYCASCLSCAFINGRQVDSRYYNYWGQGTQVTVSS
# notes: TEV-cleavable tag; Two cysteines within CDR 3 form an additional disulfide bond (confirmed by mass spectrometry)
# B2: VHH20 (VHH)
# VHH: EVQLVESGGGSVQAGGSLRLSCVASGIAFSESPMAWYRQAPGRQREFVADVSADNKPYYRDTLKGRFTISRDNDKNSVYLQMNFLQPEDTAVYYCNALLLEAGTIKNYWGQGTQVTVSS
# notes: TEV-cleavable tag
# B3: VHH2 (VHH)
# VHH: QVQLVESGGGSVQPGGSLRLSCAASGSIVGHAVQAWYRQAPGKQRDLVAQLFDNGKTNIADSVKGRFTISGDNAKNTFYLQMNNLKPEDTAIYYCAILILPSMGVPPNIYEGQGTQVTVSS
# notes: TEV-cleavable tag; source: E. coli BL21(DE3), purified (Ni-NTA, gel filtration)
# B4: VHH14 (VHH)
# VHH: EVQLVESGGGLVQAGDSLRLSCTASARTFIKYAMGWFRQAPGKEREFVAAISWSGSRTTYADSVKGRFTISRDNDKNTVYLQMNTLEPEDTAIYYCAKAKGGYHSSQYDYDYWGQGTQVTVSS
# notes: TEV-cleavable tag
# B5: VHH15 (VHH)
# VHH: EVQLVESGGGLVQAGGSLRLSCAASGRTSSIYVMAWFRQAPGKERELVAAISTSGNTVYPNSVKGRFTISRDNAKSTVYLQMNSLKPEDTAVYFCNADRTTYSSGRYSSQDYWGQGTQVTVSS
# notes: TEV-cleavable tag
# B6: VHH19 (VHH)
# VHH: EVQLVESGGGSVQAGASLRLSCAASGFPFSHYAIGWFRQAPGKEREFVTSIDRSGINTYYADSVKGRFTISRDNAKNAVSLQMNSLKPDDTAVYYCAAGPRLVTSPELYPYWGQGTQVTVSS
# notes: TEV-cleavable tag
# B7: VHH9 (VHH)
# VHH: QVQLVESGGKLVQAGGSLRLSCAASGRSIVPYAMGWFRQAPGKEREFVAVIDWSGFRTYYADSVKGRFTISRDNAKNTVYLEMSSLKPEDTAVYYCAQAGYGLGYRIHANEYHYWGQGTQVTVSS
# notes: TEV-cleavable tag; source: E. coli BL21(DE3), soluble, purified (Ni-NTA, gel filtration)
# B8: VHH13 (VHH)
# VHH: EVQLVESGGGLVQPGGSLRLSCAASGSTFSINAMGWYRQAPGKQRELVAAISSGGSTNYADSVKGRFTISRDNAKNTVYLQMNSLKPEDTAVYYCNTINIGTFISLGGSPLGSWGQGTQVTVSS
# notes: TEV-cleavable tag
# B9: VHH10 (VHH)
# VHH: EVQLVESGGGLVQAGDSLRLSCAASGRAFSGYAMAWFRQAPEKEREFVAAITWRGGTPYYAVRAKGRFTISRDSAKNTAYLEVNSLKPEDTATYYCAAPSLQVATMDVKDYAYWGQGTLVTVSS
# notes: TEV-cleavable tag
# B10: VHH16 (VHH)
# VHH: QVQLVESGGGWVQTGGSLRLSCAASGSTFDIKRMAWYRQAPGKEREFVADIWSEGSTHYADSVKGRFTISRDSAKNTMYLQMNSLKPEDTAAYYCNVGNTWGQGTQVTVSS
# notes: TEV-cleavable tag; CDR 1 and 2 identical to VHH18, CDR 3 distinct
# B11: VHH17 (VHH)
# VHH: EVQLVESGGGLVQAGGSLRLSCAASGRTFSAYAMGWFRQAPGKERELVAGISWSGGMTYYADSVKGRFTISRDNAKNMVYLQMNSLKAEDTAVYYCAGGFSAVVPDHPDEYHYWGQGTQVTVSS
# notes: TEV-cleavable tag
# B12: VHH4 (VHH)
# VHH: EVQLVESGGGLVQAGDSLRLSCTASGRNFIIYTLAWFRQAPGKEREFVAGISWSGGSTKYADPVKGRFTISRDNAKNTVYLQMNSLHSDDTGVYYCGAQRGATIDLKYGMESWGKGTQVTVSS
# notes: TEV-cleavable tag
# B13: VHH18 (VHH)
# VHH: EVQLVESGGGWVQTGGSLRLSCAASGSTFDIKRMAWYRQAPGKEREFVADIWSEGSTHYADSVKGRFTISRDSAKNTMYLYMNSLKPEDTAVYYCNVEYVLRTYWGQGTQVTVSS
# notes: TEV-cleavable tag; CDR 1 and 2 identical to VHH16, CDR 3 distinct
# B14: VHH22 (VHH)
# VHH: EVQLVESGGGLVQAGGSLKLSCAASGRTFSGNTMGWFRQAPGKERELVTVVSSGGSTYYSDSVKGRFTISRDNALNTVYLQMNSLKPEDTAVYYCAAASLISGLTTTRRLFDYWGQGTQVTVSS
# notes: TEV-cleavable tag
# B15: extracellular region of CD80 (residues 35-235) (domain or fragment, human, UniProt P33681 35-235, looked up)
# chain: VIHVTKEVKEVATLSCGHNVSVEELAQTRIYWQKEKKMVLTMMSGDMNIWPEYKNRTIFDITNNLSIVILALRPSDEGTYECVVLKYEKDAFKREHLAEVTLSVKADFPTPSISDFEIPTSNIRRIICSTSGGFPEPHLSWLENGEELNAINTTVSQDPETELYAVSSKLDFNMTTNHSFMCLIKYGHLRVNQTFNWNTTK
# notes: CD80 (Cluster of differentiation 80, B7-1), human; construct 1-235 with the native signal peptide; final purified protein holds residues 35 to 235 after signal peptide cleavage; Glycosylated form; also called B7-1; source: expiCHO cells with kifunensine, secreted, purified (Ni-NTA, gel filtration)
# B16: VHH4 (VHH)
# VHH: B12 VHH
# notes: The His6 tag is TEV-cleavable; also called anti-PD-L1 VHH 4
# B17: VHH15 (VHH)
# VHH: B5 VHH
# notes: The His6 tag is TEV-cleavable; also called anti-PD-L1 VHH 15
# B18: VHH9 (VHH)
# VHH: B7 VHH
# notes: The His6 tag is TEV-cleavable; also called anti-PD-L1 VHH 9; source: E. coli BL21(DE3), soluble expression, purified (Ni-NTA, gel filtration)
# Target: T1, PD-L2-Fc (Generon) (Homo sapiens (assumed), UniProt Q9BQ51)
# T1 construct: PD-L2 (programmed cell death 1 ligand 2), extracellular region; No catalogue number printed; also called extracellular region of PD-L2 with a Fc tag; source: bought: Generon
# Experiment: BLI; PD-L2-Fc (2 ug/ml) on Protein G biosensors; VHHs at 10 uM; 25 C
# Conditions: both partners purified
# T1 sequence (Q9BQ51 20-220): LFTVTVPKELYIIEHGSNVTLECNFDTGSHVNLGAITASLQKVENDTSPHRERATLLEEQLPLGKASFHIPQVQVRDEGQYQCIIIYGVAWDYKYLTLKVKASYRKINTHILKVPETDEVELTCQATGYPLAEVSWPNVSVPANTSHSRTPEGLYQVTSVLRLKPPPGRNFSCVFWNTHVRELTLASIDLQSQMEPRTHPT
row,binding result,Binder
1,no binding (tested: 10 μM),B1
2,no binding (tested: 10 μM),B2
3,no binding (tested: 10 μM),B3
4,no binding (tested: 10 μM),B4
5,no binding (tested: 10 μM),B5
6,no binding (tested: 10 μM),B6
7,no binding (tested: 10 μM),B7
8,no binding (tested: 10 μM),B8
9,no binding (tested: 10 μM),B9
10,no binding (tested: 10 μM),B10
11,no binding (tested: 10 μM),B11
12,no binding (tested: 10 μM),B12
13,no binding (tested: 10 μM),B13
14,no binding (tested: 10 μM),B14

# Target: T2, PD-L1 D1D2 (residues 18-237) (human, UniProt Q9NZQ7)
# T2 construct: PD-L1 (programmed death-ligand 1, B7-H1, CD274), human, extracellular region D1D2, residues 18-237; also called extracellular region of PD-L1
# Experiment: BLI; biotinylated avitagged PD-1 (5 ug/ml) on streptavidin biosensors; 3 uM PD-L1 D1D2 alone or with 20 uM VHH; 25 C
# Conditions: both partners purified
# T2 sequence (Q9NZQ7 18-237): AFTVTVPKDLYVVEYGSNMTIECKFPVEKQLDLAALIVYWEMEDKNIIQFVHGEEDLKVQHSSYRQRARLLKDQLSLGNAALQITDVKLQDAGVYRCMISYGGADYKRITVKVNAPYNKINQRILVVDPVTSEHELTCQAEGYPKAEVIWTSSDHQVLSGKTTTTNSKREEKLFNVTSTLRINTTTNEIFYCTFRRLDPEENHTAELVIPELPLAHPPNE
row,percent inhibition of PD-L1 D1D2 binding to PD-1 at 20 uM VHH [%],Binder
1,> 90,B1
2,> 90,B2
3,> 90,B3
4,> 90,B4
5,> 90,B5
6,> 90,B6
7,> 90,B7
8,> 90,B8
9,> 90,B9
10,> 90,B10
11,> 90,B11
12,> 90,B12
13,> 90,B13
14,> 90,B14

# Target: T3, PD-L1 D1 (residues 18-134) (human, UniProt Q9NZQ7 18-134)
# T3 construct: PD-L1 (programmed death-ligand 1, B7-H1, CD274), human, IgV-like domain D1, residues 18-134; Uniformly 15N/13C labelled for NMR; the sentence on constructs can be read as giving a C-terminal avitag to this construct too; also called PD-L D1
# Experiment: NMR titration; chemical shift perturbation (minimal shift) mapping: labelled PD-L1 D1 free and with a 60% molar excess of CD80; 15N/1H TROSY; 25 C; 25 mM KH2PO4 pH 7.4, 25 mM NaCl, 10 uM EDTA
# Conditions: both partners purified
# T3 sequence (Q9NZQ7 18-134): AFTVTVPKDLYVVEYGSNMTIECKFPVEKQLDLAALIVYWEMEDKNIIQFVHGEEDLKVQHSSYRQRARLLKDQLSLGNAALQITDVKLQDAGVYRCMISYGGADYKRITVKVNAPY
row,Binder,binding result
1,B15,binds

# Target: T4, PD-L1-Fc fusion protein (Homo sapiens, UniProt Q9NZQ7)
# T4 construct: PD-L1 (programmed cell death 1 ligand 1, B7-H1, CD274) part of a bought PD-L1-Fc fusion protein; Probably the extracellular region; Held on Protein G biosensors by the Fc; also called programmed death-ligand 1; B7-H1; source: bought: Invitrogen
# Experiment: BLI; PD-L1-Fc (5 ug/ml) loaded on Protein G biosensors, VHH in solution (10 uM to 0.3 nM); Octet QKe, 25 °C, PBS pH 7.4, 0.01% Tween-20, 0.1% BSA; kinetic analysis, global model 'association kinetics' in Prism 9
# Conditions: both partners purified
# T4 sequence (Q9NZQ7 19-238): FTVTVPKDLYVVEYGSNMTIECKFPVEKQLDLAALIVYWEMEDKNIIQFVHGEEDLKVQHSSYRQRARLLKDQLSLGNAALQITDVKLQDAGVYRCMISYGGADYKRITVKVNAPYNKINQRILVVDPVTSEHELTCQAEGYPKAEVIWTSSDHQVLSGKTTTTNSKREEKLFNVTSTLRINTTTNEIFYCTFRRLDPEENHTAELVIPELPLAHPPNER
Kd [nM],koff [s⁻¹],kon [M⁻¹ s⁻¹],Binder
48,0.029,590000,B16

# Target: T4, PD-L1-Fc fusion protein
# Experiment: BLI; PD-L1-Fc (5 ug/ml) loaded on Protein G biosensors, VHH in solution (10 uM to 0.3 nM); Octet QKe, 25 °C, PBS pH 7.4, 0.01% Tween-20, 0.1% BSA; steady-state analysis of the maximum responses, one-site specific-binding model in Prism 9
# Conditions: both partners purified
row,Kd [nM],Binder
1,9.2,B17
2,0.7,B18
3,59,B16
